# Where a chain is given by its changes, count along the chain named.
# T1: GDF6 prodomain (residue 1 - 335) (UniProt Q6KF10 23-335)
# T1 construct: signal peptide in the construct; GDF6 (BMP13) prodomain, residue 1-335; Construct of the microscale thermophoresis; no tag and no purification are stated; also called wild-type GDF6 prodomain
# T1 sequence (looked up): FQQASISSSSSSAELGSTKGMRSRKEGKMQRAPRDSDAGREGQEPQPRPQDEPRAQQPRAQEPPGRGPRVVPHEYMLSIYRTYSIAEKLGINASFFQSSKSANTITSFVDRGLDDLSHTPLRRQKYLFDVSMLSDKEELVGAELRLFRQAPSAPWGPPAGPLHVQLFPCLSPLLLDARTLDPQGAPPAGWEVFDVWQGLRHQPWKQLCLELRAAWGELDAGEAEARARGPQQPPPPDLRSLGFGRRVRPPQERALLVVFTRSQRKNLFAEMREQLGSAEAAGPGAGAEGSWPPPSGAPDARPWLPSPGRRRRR
# T2: GDF6 A249E prodomain (UniProt Q6KF10 23-335, A249E)
# T2 construct: signal peptide in the construct; GDF6 prodomain with the Klippel-Feil syndrome mutation A249E; limits as stated for the wild type in the same sentence (residue 1-335); Construct of the microscale thermophoresis; mutation recurrent in Klippel-Feil syndrome patients
# T2 sequence (looked up): T1 sequence (looked up) with A227E
# T3: GDF6 L289P prodomain (UniProt Q6KF10 23-335, L289P)
# T3 construct: signal peptide in the construct; GDF6 prodomain with the Klippel-Feil syndrome mutation L289P; limits as stated for the wild type in the same sentence (residue 1-335); Construct of the microscale thermophoresis; mutation recurrent in Klippel-Feil syndrome patients
# T3 sequence (looked up): T1 sequence (looked up) with L267P
# B1: Recombinant human CD99-Fc fusion protein (residue 23 - 122) (Fc fusion, UniProt P14209 23-122, looked up)
# chain: DGGFDLSDALPDNENKKPTAIPKKPSAGDDFDLGDAVVDGENDDPRPPNPPKPMPNPNPNHPSSSGSFSDADLADGVSGGEGKGGSDGGGSHRKEGEEAD
# modifications: RED-NHS 2nd generation dye, amine reactive (labelled for the microscale thermophoresis only)
# notes: The source is stated for the MST; the protein A Sepharose pull-down names the same limits and tag but no source; source: bought: R&D Systems (3968-CD-050); not shown: Fc, C-terminal, kept
# Columns and labels:
# Experiment in all cases: MST; CD99-Fc labelled with RED-NHS 2nd generation, in PBS/0.005% Tween-20; GDF6 prodomain from transfected 293T cells serially diluted in Opti-MEM; 30 minutes at room temperature; Monolith NT.115
# Conditions in all cases: one partner purified
# [1] = molecular target: T1, GDF6 prodomain (residue 1 - 335)
# GDF6 A249E prodomain = molecular target: T2, GDF6 A249E prodomain
# GDF6 L289P prodomain = molecular target: T3, GDF6 L289P prodomain
binder,measurement,setting,value
B1,Kd,[1],17.2 nM
same,Kd,GDF6 A249E prodomain,3.34 nM
same,Kd,GDF6 L289P prodomain,2.26 nM

# Reference: publication PMC7688343, “GDF6-CD99 Signaling Regulates Src and Ewing Sarcoma Growth” (Cell reports, 2020)
